Experimental data taken from US20240360194A1, “New Peptides as Potent and Selective GIP Receptor Agonists” (Sanofi, priority 2021, published 2024).
Numbered stars: 1 amine (or outer) side, 2 acyl side, 3 side chain; on linkers, the order of the positions; unused ones are H or OH. Square brackets hold non-standard residues; d marks the D form. Side chains are listed from the residue outwards. Ends that are not written are not given here. * marks the point of attachment. C18 diacid = O=C(O)CCCCCCCCCCCCCCCCC(=O)*; γGlu = O=C(O)[C@H](CCC(=O)[*:2])N[*:1]; AEEA = NCCOCCOCC(=O)O; Aib = CC(C)(N)C(=O)O

T1: human GIP receptor (human, UniProt P48546 22-466)
T1 sequence (looked up): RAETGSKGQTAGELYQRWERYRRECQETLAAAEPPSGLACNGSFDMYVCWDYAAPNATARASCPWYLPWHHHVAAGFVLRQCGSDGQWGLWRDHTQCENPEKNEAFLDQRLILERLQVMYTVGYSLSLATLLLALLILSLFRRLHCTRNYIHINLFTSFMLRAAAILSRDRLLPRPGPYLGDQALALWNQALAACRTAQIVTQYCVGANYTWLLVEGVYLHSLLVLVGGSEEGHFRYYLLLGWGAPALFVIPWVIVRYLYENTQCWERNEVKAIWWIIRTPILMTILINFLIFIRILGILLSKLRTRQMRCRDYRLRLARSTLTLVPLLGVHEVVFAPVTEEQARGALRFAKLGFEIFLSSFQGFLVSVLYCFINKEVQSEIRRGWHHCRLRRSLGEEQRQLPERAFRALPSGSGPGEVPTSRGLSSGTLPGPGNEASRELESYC

B1: SEQ ID NO: 36 (peptide)
peptide: Y[Aib]EGTFISDLSI[Aib]LEEQK([AEEA-AEEA-γGlu-C18 diacid])Q[Aib]EFIEWLLAQGPSSGAPPPS-NH2
modifications: N-terminus assumed
SMILES: CC[C@H](C)[C@H](NC(=O)[C@H](Cc1ccccc1)NC(=O)[C@H](CCC(=O)O)NC(=O)C(C)(C)NC(=O)[C@H](CCC(N)=O)NC(=O)[C@H](CCCCNC(=O)COCCOCCNC(=O)COCCOCCNC(=O)CC[C@H](NC(=O)CCCCCCCCCCCCCCCCC(=O)O)C(=O)O)NC(=O)[C@H](CCC(N)=O)NC(=O)[C@H](CCC(=O)O)NC(=O)[C@H](CCC(=O)O)NC(=O)[C@H](CC(C)C)NC(=O)C(C)(C)NC(=O)[C@@H](NC(=O)[C@H](CO)NC(=O)[C@H](CC(C)C)NC(=O)[C@H](CC(=O)O)NC(=O)[C@H](CO)NC(=O)[C@@H](NC(=O)[C@H](Cc1ccccc1)NC(=O)[C@@H](NC(=O)CNC(=O)[C@H](CCC(=O)O)NC(=O)C(C)(C)NC(=O)[C@@H](N)Cc1ccc(O)cc1)[C@@H](C)O)[C@@H](C)CC)[C@@H](C)CC)C(=O)N[C@@H](CCC(=O)O)C(=O)N[C@@H](Cc1c[nH]c2ccccc12)C(=O)N[C@@H](CC(C)C)C(=O)N[C@@H](CC(C)C)C(=O)N[C@@H](C)C(=O)N[C@@H](CCC(N)=O)C(=O)NCC(=O)N1CCC[C@H]1C(=O)N[C@@H](CO)C(=O)N[C@@H](CO)C(=O)NCC(=O)N[C@@H](C)C(=O)N1CCC[C@H]1C(=O)N1CCC[C@H]1C(=O)N1CCC[C@H]1C(=O)N[C@@H](CO)C(N)=O
notes: Synthetic peptide, 39 residues
B2: SEQ ID NO: 37 (peptide)
peptide: Y[Aib]EGTFISDLSI[Aib]LDRIK([AEEA-AEEA-γGlu-C18 diacid])Q[Aib]EFIEWLLAQGPSSGAPPPS-NH2
modifications: N-terminus assumed
SMILES: CC[C@H](C)[C@H](NC(=O)[C@H](CCCNC(=N)N)NC(=O)[C@H](CC(=O)O)NC(=O)[C@H](CC(C)C)NC(=O)C(C)(C)NC(=O)[C@@H](NC(=O)[C@H](CO)NC(=O)[C@H](CC(C)C)NC(=O)[C@H](CC(=O)O)NC(=O)[C@H](CO)NC(=O)[C@@H](NC(=O)[C@H](Cc1ccccc1)NC(=O)[C@@H](NC(=O)CNC(=O)[C@H](CCC(=O)O)NC(=O)C(C)(C)NC(=O)[C@@H](N)Cc1ccc(O)cc1)[C@@H](C)O)[C@@H](C)CC)[C@@H](C)CC)C(=O)N[C@@H](CCCCNC(=O)COCCOCCNC(=O)COCCOCCNC(=O)CC[C@H](NC(=O)CCCCCCCCCCCCCCCCC(=O)O)C(=O)O)C(=O)N[C@@H](CCC(N)=O)C(=O)NC(C)(C)C(=O)N[C@@H](CCC(=O)O)C(=O)N[C@@H](Cc1ccccc1)C(=O)N[C@H](C(=O)N[C@@H](CCC(=O)O)C(=O)N[C@@H](Cc1c[nH]c2ccccc12)C(=O)N[C@@H](CC(C)C)C(=O)N[C@@H](CC(C)C)C(=O)N[C@@H](C)C(=O)N[C@@H](CCC(N)=O)C(=O)NCC(=O)N1CCC[C@H]1C(=O)N[C@@H](CO)C(=O)N[C@@H](CO)C(=O)NCC(=O)N[C@@H](C)C(=O)N1CCC[C@H]1C(=O)N1CCC[C@H]1C(=O)N1CCC[C@H]1C(=O)N[C@@H](CO)C(N)=O)[C@@H](C)CC
notes: as for B1

Legend:
[1] = target: T1, human GIP receptor; assay: cell-based or functional assay
[2] = target: T2, human GLP-1 receptor (human, UniProt P43220 24-463); assay: cell-based or functional assay
[3] = target: T1, human GIP receptor; assay: cell-based or functional assay; remark: listed apart in the source
[4] = target: T2, human GLP-1 receptor; assay: displacement of [125I]GLP-1 from HEK-293 membranes expressing hGLP-1R (SPA beads)

Binder	EC50 hGIPR 0% HSA (cAMP, HEK-293) [1] [nM]	EC50 hGIPR 0.1% BSA (cAMP, HEK-293) [1] [nM]	EC50 hGLP-1R 0.1% BSA (cAMP, HEK-293) [2] [nM]	hGIPR EC50 (cAMP, human adipocytes) [3] [nM]	hGIPR Emax (cAMP, human adipocytes) [3] [%]	IC50 [4] [nM]
B1	0.00012	0.0288	> 10	0.3	104	115
B2	0.00015	0.0201	> 10	0.5	113	41
